B1: LapB cytoplasmic domain (LapB_(cyto)) (domain or fragment, Escherichia coli strain CFT073, UniProt P0AB58 21-389, looked up)
chain: RRSAQQNKQDEANRLSRDYVAGVNFLLSNQQDKAVDLFLDMLKEDTGTVEAHLTLGNLFRSRGEVDRAIRIHQTLMESASLTYEQRLLAIQQLGRDYMAAGLYDRAEDMFNQLTDETDFRIGALQQLLQIYQATSEWQKAIDVAERLVKLGKDKQRVEIAHFYCELALQHMASDDLDRAMTLLKKGAAADKNSARVSIMMGRVFMAKGEYAKAVESLQRVISQDRELVSETLEMLQTCYQQLGKTAEWAEFLQRAVEENTGADAELMLADIIEARDGSEAAQVYITRQLQRHPTMRVFHKLMDYHLNEAEEGRAKESLMVLRDMVGEKVRSKPRYRCQKCGFTAYTLYWHCPSCRAWSTIKPIRGLDGL
B2: LpxC labeled with Atto488 (enzyme, Escherichia coli strain CFT073, UniProt P0A725 1-305, looked up)
chain: MIKQRTLKRIVQATGVGLHTGKKVTLTLRPAPANTGVIYRRTDLNPPVDFPADAKSVRDTMLCTCLVNEHDVRISTVEHLNAALAGLGIDNIVIEVNAPEIPIMDGSAAPFVYLLLDAGIDELNCAKKFVRIKETVRVEDGDKWAEFKPYNGFSLDFTIDFNHPAIDSSNQRYAMNFSADAFMRQISRARTFGFMRDIEYLQSRGLCLGGSFDCAIVVDDYRVLNEDGLRFEDEFVRHKMLDAIGDLFMCGHNIIGAFTAYKSGHALNNKLLQAVLAKQEAWEYVTFQDDAELPLAFKAPSAVLA
modifications: Atto488 dye (Atto488 protein labeling kit, protein to dye ratio of 6:1)
notes: LpxC, amplified from Escherichia coli strain CFT073 genomic DNA; His tag removed by 3C protease; also called LpxC-Atto488; source: E. coli BL21 Star (DE3) pLysS, purified (Ni-NTA, 3C cleavage, gel filtration), labeled with Atto488; not shown: His tag, N-terminal, cleaved

Key:
[1] = target: B2; assay: cell-based or functional assay
[2] = target: B1; assay: inhibition of a protease assay (Kd calculated from the IC50); 0.06 μM FtsH/LapB complex on POPC liposomes, 1.8 μM LpxC-Atto488, 0-12.96 μM LapB_(cyto) in solution, 37 °C, 20 min; Kd = (IC50 – 2KM/3)/2; settings: both partners purified
FtsH (non-tagged) = FtsH (non-tagged) (Escherichia coli strain CFT073, UniProt P0AAI3 1-644); assay: cell-based or functional assay
Chain of FtsH (non-tagged) (P0AAI3 whole entry): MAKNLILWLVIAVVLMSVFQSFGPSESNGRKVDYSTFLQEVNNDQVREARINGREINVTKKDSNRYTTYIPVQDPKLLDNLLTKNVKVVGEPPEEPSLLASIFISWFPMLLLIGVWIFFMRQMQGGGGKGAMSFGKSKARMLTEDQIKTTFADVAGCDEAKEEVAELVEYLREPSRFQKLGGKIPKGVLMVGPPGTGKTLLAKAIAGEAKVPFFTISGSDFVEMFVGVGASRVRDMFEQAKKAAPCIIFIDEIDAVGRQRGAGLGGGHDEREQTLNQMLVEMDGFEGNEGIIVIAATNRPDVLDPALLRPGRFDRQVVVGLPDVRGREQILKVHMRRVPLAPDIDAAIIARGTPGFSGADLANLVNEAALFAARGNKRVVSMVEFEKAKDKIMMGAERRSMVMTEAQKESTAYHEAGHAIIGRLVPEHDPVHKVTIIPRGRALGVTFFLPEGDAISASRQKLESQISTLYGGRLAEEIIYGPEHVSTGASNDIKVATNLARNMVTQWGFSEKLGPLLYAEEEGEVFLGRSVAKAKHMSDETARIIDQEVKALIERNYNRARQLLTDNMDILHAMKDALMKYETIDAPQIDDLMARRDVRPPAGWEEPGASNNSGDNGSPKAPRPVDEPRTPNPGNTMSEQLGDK

| Binder | IC50 of inhibition of LpxC-Atto488 degradation by FtsH/LapB proteoliposomes (0-12.96 μM LapB_(cyto)) [1] | Kd [2] | fold reduction by LapB of the KM for LpxC degradation by FtsH proteoliposomes (FtsH (non-tagged)) |
| --- | --- | --- | --- |
| B1 | 3.96 µM | – | – |
| B2 | – | 1340 nM | ~8 fold |
